Experimental findings from paper PMC5153404 are described below.

In assay [1] the target is Recombinant mature human gC1qR (residues 74-282) (UniProt Q07021). Briefly: ELISA. As to conditions: 2.5 μg/well gh protein, 90 min at 37°C and 90 min at 4°C, parent: est. 100, read off a plot.
Assay [2] has the same target. Briefly: ELISA; gC1qR coated at 0.25, 0.5 and 1 μg/well; 2.5 μg/well of gh module or substitution mutant; 90 min at 37°C and 90 min at 4°C; detected with anti-MBP monoclonal antibody.

A value given as a limit tells only on which side of the number the result lay.

Chain of Recombinant globular head module of the human C1q C chain (ghC), MBP fusion (from UniProt P02747) R156E (P02747 115-245, stated change not applied): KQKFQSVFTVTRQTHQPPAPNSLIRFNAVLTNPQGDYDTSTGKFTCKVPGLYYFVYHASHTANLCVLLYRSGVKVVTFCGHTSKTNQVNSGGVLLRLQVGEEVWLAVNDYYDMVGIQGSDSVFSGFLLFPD
Chain of Recombinant globular head module of the human C1q C chain (ghC), MBP fusion (from UniProt P02747) L170E (P02747 115-245, stated change not applied): as above
Chain of Recombinant mature human gC1qR (residues 74-282) (Q07021 74-282): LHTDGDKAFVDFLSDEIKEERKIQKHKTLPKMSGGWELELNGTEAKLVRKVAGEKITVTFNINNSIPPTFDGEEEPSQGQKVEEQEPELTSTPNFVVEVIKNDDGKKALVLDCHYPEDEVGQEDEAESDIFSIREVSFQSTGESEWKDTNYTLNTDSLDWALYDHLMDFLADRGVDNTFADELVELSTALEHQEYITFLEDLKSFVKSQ
Chain of Recombinant globular head module of the human C1q B chain (ghB), MBP fusion (from UniProt P02746) T175L (P02746 117-253, stated change not applied): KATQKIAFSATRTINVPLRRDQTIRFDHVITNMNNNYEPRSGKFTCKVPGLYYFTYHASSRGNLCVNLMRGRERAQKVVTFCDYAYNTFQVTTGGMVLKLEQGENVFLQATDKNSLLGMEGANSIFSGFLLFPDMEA
Chain of Recombinant globular head module of the human C1q B chain (ghB), MBP fusion (from UniProt P02746) R129A (P02746 117-253, stated change not applied): as above
Chain of Recombinant globular head module of the human C1q C chain (ghC), MBP fusion (from UniProt P02747) H101A (P02747 115-245, stated change not applied): as the sequence (P02747 115-245, stated change not applied) above

In the case of “Recombinant globular head module of the human C1q B chain (ghB), MBP fusion (from UniProt P02746) R129A”, the percent of parent in assay [1] (0.25 μg/well gC1qR coated) was determined as 27 % binding; in assay [1] (0.5 μg/well gC1qR coated) it was 33 % binding; in assay [1] (1 μg/well gC1qR coated) it was 30 % binding.

For the substance “Recombinant globular head module of the human C1q B chain (ghB), MBP fusion (from UniProt P02746) T175L”, the percent of parent in assay [1] (0.25 μg/well gC1qR coated) came to 62 % binding; in assay [1] (0.5 μg/well gC1qR coated), 56 % binding; in assay [1] (1 μg/well gC1qR coated), 68 % binding.

Consider “Recombinant globular head module of the human C1q C chain (ghC), MBP fusion (from UniProt P02747) H101A”, for which the percent of parent in assay [1] (0.25 μg/well gC1qR coated) is 51 % binding; in assay [1] (1 μg/well gC1qR coated), 79 % binding.

Regarding “Recombinant globular head module of the human C1q C chain (ghC), MBP fusion (from UniProt P02747) L170E”, the percent of parent turned out to be 62 % binding in assay [1] (0.25 μg/well gC1qR coated), 91 % binding in assay [1] (0.5 μg/well gC1qR coated) and 100 % binding in assay [1] (1 μg/well gC1qR coated).

Turning to “Recombinant globular head module of the human C1q C chain (ghC), MBP fusion (from UniProt P02747) R156E”, the percent of parent came to 81 % binding in assay [1] (0.25 μg/well gC1qR coated), 110 % binding in assay [1] (0.5 μg/well gC1qR coated) and 110 % binding in assay [1] (1 μg/well gC1qR coated).

Regarding “ghA-R162A, MBP fusion (from UniProt P02745 23-245) (domain or fragment)”, the percent reduction in binding against wild-type ghA in assay [2] was < 70%.

With “ghB-H117D, MBP fusion (from UniProt P02746 28-253) (domain or fragment)”, in assay [2], the percent reduction in binding against wild-type ghB amounted to 60%.
